Laboratory results published in publication PMC4917968.

Assays:
[1] = target: Full-length mouse eRF1 (mouse) (UniProt Q8BWY3); test: ITC; competition: RNase H (WT or mutant) titrated to the preformed eRF1/eRF3 complex; apparent Kd; 22 °C, 20 mM HEPES pH 7.5, 150 mM NaCl, 5 mM TCEP; single-site model
[2] = target: Full-length mouse eRF1 (mouse) (UniProt Q8BWY3); test: ITC; 22 °C, MicroCal VP-ITC; 20 mM HEPES pH 7.5, 150 mM NaCl, 5 mM TCEP; injectant protein 220-300 μM into a cell with 13-20 μM protein; single-site model

Substance | Kd [1] | Kd [2] | fold reduction of binding against WT RNase H [2]
Isolated RNase H domain of MoMLV RT (aa 500–671) (domain or fragment) | 5.6 µM | 4.18 µM | 
RNase H mutant F588A (isolated RNase H domain of MoMLV RT) (domain or fragment) |  |  | 10 fold
